From the supplement of paper PMC9112550, “Optimization of the antimicrobial peptide Bac7 by deep mutational scanning” (BMC Biology, 2022) come the findings set out here.

In this data set the test system is Escherichia coli TOP10. Briefly: shrunken log2 fold change of peptide-encoding DNA abundance (4.5 h post-induction vs induction); higher = less antimicrobial activity (less host growth inhibition). To be noted: time post-induction: 4.5 h; library: site-saturation at positions 5, 18, 19, 20.
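Also: peptides expressed intracellularly from a pBAD plasmid library in pooled LB shake-flask culture, induced with 0.3% L-arabinose, DNA abundance read by NGS, three biological replicates, DESeq2 with apeglm shrinkage.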

As to RRIRSRPPRLPRPRPRPITSPRP, the “shrunken log2 fold change” value was -0.0517.

Regarding RRIRARPPRLPRPRPRPSYMPRP, the “shrunken log2 fold change” value is -0.761.

For the sequence RRIRSRPPRLPRPRPRPCRTPRP, the “shrunken log2 fold change” value is -0.2.

RRIRERPPRLPRPRPRPNPGPRP: the “shrunken log2 fold change” value is -0.55.

As for RRIRKRPPRLPRPRPRPEMTPRP, the “shrunken log2 fold change” value came to 2.82.

For the sequence RRIRHRPPRLPRPRPRPYDCPRP, the “shrunken log2 fold change” value was -0.0596.

RRIRARPPRLPRPRPRPMYIPRP: the “shrunken log2 fold change” value was -0.345.

In the case of RRIRLRPPRLPRPRPRPFRYPRP, the “shrunken log2 fold change” value is -0.021.

With RRIRCRPPRLPRPRPRPLKMPRP, the “shrunken log2 fold change” value is -0.365.

For RRIRNRPPRLPRPRPRPRWWPRP, the “shrunken log2 fold change” value was 0.159.

In the case of RRIRFRPPRLPRPRPRPDTQPRP, the “shrunken log2 fold change” value stood at 0.0363.

Take RRIRMRPPRLPRPRPRPVMQPRP: the “shrunken log2 fold change” value is -0.221.

Take RRIRERPPRLPRPRPRPQPRPRP: the “shrunken log2 fold change” value worked out at 0.328.

For RRIRRRPPRLPRPRPRPRGRPRP, the “shrunken log2 fold change” value is 0.319.

As to RRIRIRPPRLPRPRPRPRIQPRP, the “shrunken log2 fold change” value was -0.275.

For RRIRQRPPRLPRPRPRPFFTPRP, the “shrunken log2 fold change” value is -0.343.

For the sequence RRIRVRPPRLPRPRPRPFIPPRP, the “shrunken log2 fold change” value was -0.535.

Regarding RRIRARPPRLPRPRPRPSGTPRP, the “shrunken log2 fold change” value was -0.0328.

For the sequence RRIRERPPRLPRPRPRPTILPRP, the “shrunken log2 fold change” value was -0.0814.

Consider RRIRSRPPRLPRPRPRPYHAPRP, for which the “shrunken log2 fold change” value was -8.39e-05.

With RRIRPRPPRLPRPRPRPQKNPRP, the “shrunken log2 fold change” value is -0.169.

Turning to RRIRNRPPRLPRPRPRPSWYPRP, the “shrunken log2 fold change” value is -0.81.

Regarding RRIRIRPPRLPRPRPRPCAIPRP, the “shrunken log2 fold change” value was 0.137.

For the sequence RRIRHRPPRLPRPRPRPADGPRP, the “shrunken log2 fold change” value was -0.279.

For the sequence RRIRGRPPRLPRPRPRPQFQPRP, the “shrunken log2 fold change” value came out at 0.0768.

In the case of RRIRFRPPRLPRPRPRPLPDPRP, the “shrunken log2 fold change” value was 0.138.

For the sequence RRIRERPPRLPRPRPRPKVMPRP, the “shrunken log2 fold change” value turned out to be 0.0306.

Consider RRIRQRPPRLPRPRPRPVTAPRP, for which the “shrunken log2 fold change” value is -0.362.

Take RRIRFRPPRLPRPRPRPHHQPRP: the “shrunken log2 fold change” value was -0.963.

As to RRIRIRPPRLPRPRPRPCYCPRP, the “shrunken log2 fold change” value is -0.0457.

Take RRIRSRPPRLPRPRPRPIFEPRP: the “shrunken log2 fold change” value came to 0.0577.

As for RRIRERPPRLPRPRPRPWRIPRP, the “shrunken log2 fold change” value was -0.0301.

Take RRIRLRPPRLPRPRPRPANIPRP: the “shrunken log2 fold change” value was -0.501.

Take RRIRTRPPRLPRPRPRPYWEPRP: the “shrunken log2 fold change” value was -0.0372.

As to RRIRSRPPRLPRPRPRPYTFPRP, the “shrunken log2 fold change” value is -1.01.

RRIRYRPPRLPRPRPRPSNAPRP: the “shrunken log2 fold change” value was -1.

With RRIRQRPPRLPRPRPRPQLLPRP, the “shrunken log2 fold change” value was -0.00691.

Consider RRIRKRPPRLPRPRPRPRIRPRP, for which the “shrunken log2 fold change” value worked out at 0.344.

As to RRIRSRPPRLPRPRPRPGRFPRP, the “shrunken log2 fold change” value is 0.406.

As for RRIRARPPRLPRPRPRPNMCPRP, the “shrunken log2 fold change” value is -0.339.

On to RRIRWRPPRLPRPRPRPHIHPRP, for which the “shrunken log2 fold change” value was -0.359.

Consider RRIRERPPRLPRPRPRPQIIPRP, for which the “shrunken log2 fold change” value is -1.12.

Consider RRIRARPPRLPRPRPRPPSRPRP, for which the “shrunken log2 fold change” value is 0.691.

As to RRIRMRPPRLPRPRPRPHIKPRP, the “shrunken log2 fold change” value was -0.501.

On to RRIRERPPRLPRPRPRPTKAPRP, for which the “shrunken log2 fold change” value came to 0.043.

Regarding RRIRARPPRLPRPRPRPRGGPRP, the “shrunken log2 fold change” value was determined as 0.737.

With RRIRVRPPRLPRPRPRPHQSPRP, the “shrunken log2 fold change” value was -0.23.

With RRIRSRPPRLPRPRPRPDWEPRP, the “shrunken log2 fold change” value was -0.0106.

In the case of RRIRLRPPRLPRPRPRPTFDPRP, the “shrunken log2 fold change” value was -0.173.

With RRIRHRPPRLPRPRPRPVIMPRP, the “shrunken log2 fold change” value was -1.

With RRIRHRPPRLPRPRPRPDDAPRP, the “shrunken log2 fold change” value is 0.0602.

As to RRIRFRPPRLPRPRPRPCPNPRP, the “shrunken log2 fold change” value was 0.044.

In the case of RRIRFRPPRLPRPRPRPYQYPRP, the “shrunken log2 fold change” value came to 0.0631.

Take RRIRRRPPRLPRPRPRPETEPRP: the “shrunken log2 fold change” value was found to be 0.783.

RRIRGRPPRLPRPRPRPHVAPRP: the “shrunken log2 fold change” value worked out at 0.724.

Regarding RRIRYRPPRLPRPRPRPLPEPRP, the “shrunken log2 fold change” value is -0.323.

Turning to RRIRMRPPRLPRPRPRPGAFPRP, the “shrunken log2 fold change” value is 0.611.

Take RRIRRRPPRLPRPRPRPVAEPRP: the “shrunken log2 fold change” value worked out at 0.663.

On to RRIRYRPPRLPRPRPRPFTYPRP, for which the “shrunken log2 fold change” value was -0.529.

In the case of RRIRVRPPRLPRPRPRPCCGPRP, the “shrunken log2 fold change” value is -0.248.

Consider RRIRERPPRLPRPRPRPSMAPRP, for which the “shrunken log2 fold change” value is -0.192.

In the case of RRIRRRPPRLPRPRPRPSWKPRP, the “shrunken log2 fold change” value stood at 0.16.

Consider RRIRLRPPRLPRPRPRPEATPRP, for which the “shrunken log2 fold change” value is 0.294.

On to RRIRGRPPRLPRPRPRPFQMPRP, for which the “shrunken log2 fold change” value stood at 0.0308.

In the case of RRIRKRPPRLPRPRPRPWEIPRP, the “shrunken log2 fold change” value was -0.00947.

As for RRIRHRPPRLPRPRPRPCSRPRP, the “shrunken log2 fold change” value was -0.231.

For the sequence RRIRYRPPRLPRPRPRPQFSPRP, the “shrunken log2 fold change” value is 0.0125.

For the sequence RRIRRRPPRLPRPRPRPYDMPRP, the “shrunken log2 fold change” value is -0.532.

RRIRCRPPRLPRPRPRPKVRPRP: the “shrunken log2 fold change” value turned out to be 0.195.

With RRIRFRPPRLPRPRPRPYQTPRP, the “shrunken log2 fold change” value was -0.0618.

Take RRIRQRPPRLPRPRPRPMLYPRP: the “shrunken log2 fold change” value was -0.282.

Turning to RRIRWRPPRLPRPRPRPKGQPRP, the “shrunken log2 fold change” value is -0.0148.

On to RRIRIRPPRLPRPRPRPVHGPRP, for which the “shrunken log2 fold change” value is -0.0643.

For the sequence RRIRRRPPRLPRPRPRPYHYPRP, the “shrunken log2 fold change” value was -0.717.

Regarding RRIRCRPPRLPRPRPRPANPPRP, the “shrunken log2 fold change” value is -0.057.

Take RRIRYRPPRLPRPRPRPRFKPRP: the “shrunken log2 fold change” value is -0.302.

In the case of RRIRWRPPRLPRPRPRPYKAPRP, the “shrunken log2 fold change” value is 0.0233.

As to RRIRLRPPRLPRPRPRPPFKPRP, the “shrunken log2 fold change” value worked out at 0.0605.

For the sequence RRIRVRPPRLPRPRPRPRDRPRP, the “shrunken log2 fold change” value amounted to 0.46.

For RRIRWRPPRLPRPRPRPPYTPRP, the “shrunken log2 fold change” value is -0.137.

As to RRIRIRPPRLPRPRPRPEVWPRP, the “shrunken log2 fold change” value came out at 0.217.

In the case of RRIRGRPPRLPRPRPRPSHGPRP, the “shrunken log2 fold change” value was found to be 0.487.

Take RRIRHRPPRLPRPRPRPIETPRP: the “shrunken log2 fold change” value was -0.00822.

RRIRGRPPRLPRPRPRPEWWPRP: the “shrunken log2 fold change” value came out at 0.77.

In the case of RRIRRRPPRLPRPRPRPCCRPRP, the “shrunken log2 fold change” value stood at 0.197.

With RRIRKRPPRLPRPRPRPVKYPRP, the “shrunken log2 fold change” value was determined as 0.221.

Consider RRIRKRPPRLPRPRPRPRAPPRP, for which the “shrunken log2 fold change” value was determined as 0.538.

For the sequence RRIRARPPRLPRPRPRPQNKPRP, the “shrunken log2 fold change” value was -0.232.

In the case of RRIRLRPPRLPRPRPRPYLMPRP, the “shrunken log2 fold change” value is -0.69.

On to RRIRDRPPRLPRPRPRPCHFPRP, for which the “shrunken log2 fold change” value was -0.105.

As for RRIRKRPPRLPRPRPRPKTYPRP, the “shrunken log2 fold change” value is -0.156.

With RRIRTRPPRLPRPRPRPAGIPRP, the “shrunken log2 fold change” value is -0.0928.

As for RRIRTRPPRLPRPRPRPTCTPRP, the “shrunken log2 fold change” value was -0.094.

As for RRIRRRPPRLPRPRPRPCPMPRP, the “shrunken log2 fold change” value was -0.0862.

Regarding RRIRERPPRLPRPRPRPEERPRP, the “shrunken log2 fold change” value came out at 0.0375.

Regarding RRIRQRPPRLPRPRPRPQFWPRP, the “shrunken log2 fold change” value amounted to 0.681.

RRIRFRPPRLPRPRPRPVMMPRP: the “shrunken log2 fold change” value was -0.43.

With RRIRRRPPRLPRPRPRPVEQPRP, the “shrunken log2 fold change” value was determined as 0.0679.

Consider RRIRVRPPRLPRPRPRPTYLPRP, for which the “shrunken log2 fold change” value worked out at 0.00624.

As to RRIRMRPPRLPRPRPRPVGHPRP, the “shrunken log2 fold change” value amounted to 0.193.

In the case of RRIRCRPPRLPRPRPRPYRPPRP, the “shrunken log2 fold change” value is -0.352.

For RRIRNRPPRLPRPRPRPIMNPRP, the “shrunken log2 fold change” value was -0.619.

RRIRCRPPRLPRPRPRPTQKPRP: the “shrunken log2 fold change” value is 0.0827.

On to RRIRTRPPRLPRPRPRPNVYPRP, for which the “shrunken log2 fold change” value was -0.683.

For the sequence RRIRTRPPRLPRPRPRPIINPRP, the “shrunken log2 fold change” value is -0.0706.

RRIRCRPPRLPRPRPRPYTLPRP: the “shrunken log2 fold change” value was -1.07.

As to RRIRFRPPRLPRPRPRPPPFPRP, the “shrunken log2 fold change” value stood at 0.608.

For the sequence RRIRRRPPRLPRPRPRPDETPRP, the “shrunken log2 fold change” value was found to be 0.745.

As for RRIRSRPPRLPRPRPRPQQQPRP, the “shrunken log2 fold change” value is -0.0954.

As to RRIRSRPPRLPRPRPRPYIIPRP, the “shrunken log2 fold change” value was -0.502.

RRIRSRPPRLPRPRPRPVHPPRP: the “shrunken log2 fold change” value is 0.245.

For the sequence RRIRHRPPRLPRPRPRPPHIPRP, the “shrunken log2 fold change” value was -0.287.

Regarding RRIRNRPPRLPRPRPRPITVPRP, the “shrunken log2 fold change” value was -0.0598.

Regarding RRIRDRPPRLPRPRPRPDVRPRP, the “shrunken log2 fold change” value was found to be 0.0212.

Regarding RRIRQRPPRLPRPRPRPEIGPRP, the “shrunken log2 fold change” value amounted to 0.0792.

For the sequence RRIRSRPPRLPRPRPRPDKHPRP, the “shrunken log2 fold change” value was -0.402.

For the sequence RRIRLRPPRLPRPRPRPMMTPRP, the “shrunken log2 fold change” value was -0.042.

RRIRGRPPRLPRPRPRPDQQPRP: the “shrunken log2 fold change” value turned out to be 0.074.

Turning to RRIRERPPRLPRPRPRPKTTPRP, the “shrunken log2 fold change” value is -0.107.

As for RRIRNRPPRLPRPRPRPRTKPRP, the “shrunken log2 fold change” value amounted to 0.123.

On to RRIRFRPPRLPRPRPRPDCAPRP, for which the “shrunken log2 fold change” value stood at 0.0274.

For the sequence RRIRERPPRLPRPRPRPQVRPRP, the “shrunken log2 fold change” value is -0.0385.

In the case of RRIRERPPRLPRPRPRPMTQPRP, the “shrunken log2 fold change” value was found to be 0.00826.

Turning to RRIRCRPPRLPRPRPRPNIYPRP, the “shrunken log2 fold change” value is -0.588.

For RRIRMRPPRLPRPRPRPNIEPRP, the “shrunken log2 fold change” value was determined as 0.219.
